Experimental data: patent publication US20180094062A1 (Hoffmann-La Roche, published 2018)
Changes are numbered by the printed parent chain. One block for each binder: values may come before it.

Assays:
[1] = target: T1, human HER1 Extracellular Domain (HER1 ECD) (human, UniProt P00533 25-645); assay: ELISA, antigen coated, hybridoma supernatant
T1 construct: also called EGFR ECD
Description: (§1) For the ELISA screening an antigen down format was used. […] Hybridoma Supernatant was added to the plates and incubated for 1 h at room temperature. Bound antibody was detected with a HRP-labeled F(ab′)₂ goat anti-mouse Fcγ (Dianova) and ABTS (Roche) was used as a HRP-substrate.
(§2) As negative controls the scaffold proteins TtSlyDcas and TgSlyDΔIF were used.

TtSlyDcas [2] = target: T2, TtSlyDcas; assay: ELISA, antigen coated, hybridoma supernatant
T2 construct: negative control scaffold without the HER3 β-hairpin
T2 chain: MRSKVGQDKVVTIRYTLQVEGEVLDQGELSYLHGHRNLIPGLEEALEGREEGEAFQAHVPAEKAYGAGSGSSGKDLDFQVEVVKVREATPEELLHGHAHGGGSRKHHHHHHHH
Description: as §1, §2

[3] = target: T3, human recombinant HER3 Extracellular Domain (HER3 ECD) (human, UniProt P21860 20-643); assay: SPR Biacore T200, antibody captured, 25 C
T3 construct: 68 kDa; also called human-Her3-ECD
Description: (§3) A Biacore T200 instrument (GE Healthcare) was mounted with a CM5 series sensor. The sensor was normalized in HBS-ET buffer (10 mM HEPES pH 7.4, 150 mM NaCl, 3 mM EDTA, 0.05% w/v Tween 20) according to the manufacturer's instructions. The sample buffer was the system buffer supplemented with 1 mg/ml CMD (Carboxymethyldextran, Sigma #86524). The system operated at 25° C. 6500 RU RAM-Fcγ (relative units of Fcγ-fragment RamlgG, GE Healthcare) were immobilized according to the manufacturer's instructions using amine coupling EDC/NHS chemistry on all four flow cells. The sensor was deactivated using 1M ethanolamine. […] Concentration dependent kinetics were measured. […] All analytes were injected for 5 min association time and 10 min dissociation time at 100 μl/min flow rate. The sensor capture system was regenerated by a 3 min injection at 10 μl/min of 10 mM glycine pH 1.7. Where possible kinetic data was evaluated using the Biacore T200 evaluation software.

[4] = target: T4, HER3 ECD-HRG complex (Heregulin-activated Her-3 ECD) (human, UniProt P21860 20-643); assay: SPR Biacore T200, antibody captured, 25 C
T4 construct: receptor-ligand complex made by preincubating HER3 ECD with a five-fold molar excess of Heregulin; also called Heregulin/Her-3 ECD; Heregulin-complexed Her-3 ECD
Description: as §3

TtSlyDcas [5] = target: T2, TtSlyDcas; assay: SPR Biacore T200, antibody captured, 25 C
Description: as §3

[6] = target: T3, human recombinant HER3 Extracellular …; assay: SPR Biacore 4000 kinetic screening, antibody captured, analyte 150 nM, 25 C
Description: (§4) In all assay the test antibodies were captured. The system was under the control of the software version V1.1. The instrument buffer was HBS-EP (10 mM HEPES (pH 7.4), 150 mM NaCl, 1 mM EDTA, 0.05% (w/v) P20). The system operated at 25° C. 30 μg/ml Rabbit polyclonal antibody (RAM IgG, (Rabbit anti Mouse IgG with Fc gamma specificity) GE Healthcare) in 10 mM sodium acetate buffer (pH 4.5) was immobilized using EDC/NHS chemistry according to the manufacturer's instructions on the spots 1, 2, 4 and 5 in the flow cells 1, 2, 3 and 4. The sensor was saturated using 1M ethanolamine. In each flow cell, referenced signals were calculated using spots 1-2 and spots 5-4, spot 3 served as a blanc control. […] Prior to their application the hybridoma culture supernatants were diluted 1:5 in instrument buffer. The diluted mixtures were injected at a flow rate of 30 μl/min for 2 min. The antibody capture level (CL) in response units was monitored. Immediately thereafter the respective antigen was injected at a flow rate of 30 μl/min for 3 min association time. Thereafter, the antibody-antigen complex dissociation signal was recorded for 5 min. The sensor was regenerated by injecting a 10 mM glycine-HCl solution (pH 1.7) for 2 min at a flow rate of 30 μl/min. The recorded signal shortly before the end of the injection of the antigen was denoted as binding late (BL) in response units. The recorded signal shortly before the end of the recording of the dissociation is denoted as stability late (SL) in response units. The dissociation rate constants were determined calculated The antibody-antigen complex stability in minutes was calculated with the following formula: […]. The Molar Ratio was calculated with the formula: MW (antibody)/MW (antigen) *BL (antigen)/CL (antibody).

[7] = target: T5, recombinant Thermus thermophilus SlyD FKBP-Her3 (TtSlyD-FKBP-Her3); assay: as above
T5 construct: expressed in E. coli, the N-terminal methionine can be present or not; also called thermo SlyD-Her3; T.T.SlyD-Her3
T5 chain: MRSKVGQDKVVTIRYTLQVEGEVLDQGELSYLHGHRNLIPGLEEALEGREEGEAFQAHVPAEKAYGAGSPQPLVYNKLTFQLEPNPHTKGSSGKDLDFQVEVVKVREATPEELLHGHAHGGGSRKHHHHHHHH
Description: as §4

TgSlyDcys-Her3 = target: T6, TgSlyDcys-Her3; assay: ELISA, antigen coated, hybridoma supernatant
T6 chain: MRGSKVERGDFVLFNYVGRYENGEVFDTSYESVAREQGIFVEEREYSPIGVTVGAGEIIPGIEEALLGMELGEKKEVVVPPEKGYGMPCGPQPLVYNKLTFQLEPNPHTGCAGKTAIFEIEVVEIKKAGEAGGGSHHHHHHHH
Description: as §1, §2

TgSlyDser-Her3 = target: T7, TgSlyDser-Her3; assay: ELISA, antigen coated, hybridoma supernatant
T7 chain: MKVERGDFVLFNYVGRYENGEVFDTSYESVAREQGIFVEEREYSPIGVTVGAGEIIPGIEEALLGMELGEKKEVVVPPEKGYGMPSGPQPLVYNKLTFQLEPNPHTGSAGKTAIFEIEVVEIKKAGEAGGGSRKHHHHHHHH
Description: as §1, §2

B3: anti-HER3 antibody M-17-02 (antibody, V domains shown)
VH: EVQLQQSGTVLARPGASVKMSCKASGYSFTSYWIHWVKQRPGQGLEWIGAIYPGNSDTTYNQKFKGKAKLTAVTSASTAYMELSSLTNEDSAVYYCARTGVWTSYYFDYWGQGTTLTVSS
VL: DIQMTQSPASLSASVGETVTITCRASENIYSNLAWYQQKQGKSPQLLVYAATNLADGVPSRFSGSGSGTQFSLRINSLQPEDFGSYYCQHFYGTPFTFGTGTKLEIK
notes: mouse hybridoma clone
OD 405 nm [1]: 0.028 OD
binding result [1]: no binding
OD 405 nm (TgSlyDcys-Her3): 1.53 OD
OD 405 nm (TtSlyDcas [2]): 0.023 OD
OD 405 nm (TgSlyDser-Her3): 1.57 OD
BL (binding late) [6]: 10 RU
MR (Molar Ratio) [6]: 0.1
SL (stability late) [6]: 10 RU
BL (binding late) [7]: 52 RU
MR (Molar Ratio) [7]: 1.7
SL (stability late) [7]: 50 RU
koff [7]: 0.0002 s⁻¹
t/2 diss [7]: 59 min

B4: anti-HER3 antibody M-43-01 (antibody, V domains shown)
VH: EVQLQQSGTVLARPGASVKMSCKASDYTFSNYWVHWVKQRPGQGLEWIGAIYPGNGDSTYYQKFKGKATLTAVTSTSTAYMDLSSLTNGDSAVYFCTRSGVGYNYYFDYWGQGTTLTVSS
VL: B3 VL with A50I, R74K, F83L, K107E
notes: mouse hybridoma clone
OD 405 nm [1]: 0.043 OD
binding result [1]: no binding
OD 405 nm (TgSlyDcys-Her3): 3.15 OD
OD 405 nm (TtSlyDcas [2]): 0.018 OD
OD 405 nm (TgSlyDser-Her3): 3.44 OD
Kd [3]: 5.2 nM
MR (Molar Ratio) [3]: 0.1
koff [3]: 0.00055 s⁻¹
kon [3]: 110000 M⁻¹ s⁻¹
MR (Molar Ratio) [4]: 0.3
MR (Molar Ratio) (TtSlyDcas [5]): 0
binding result (TtSlyDcas [5]): no binding (tested: 90 nM)
BL (binding late) [6]: 9 RU
MR (Molar Ratio) [6]: 0.1
SL (stability late) [6]: 8 RU
koff [6]: 0.00066 s⁻¹
t/2 diss [6]: 18 min
BL (binding late) [7]: 53 RU
MR (Molar Ratio) [7]: 1.7
SL (stability late) [7]: 51 RU
koff [7]: 0.00016 s⁻¹
t/2 diss [7]: 73 min

The remaining binders from weak to strong by Kd [3], led by results:

OD 405 nm [1]: 0.043 OD
binding result [1]: no binding
OD 405 nm (TtSlyDcas [2]): 0.038 OD
Kd [3]: 3.8 nM
MR (Molar Ratio) [3]: 0.2
koff [3]: 0.0004 s⁻¹
kon [3]: 100000 M⁻¹ s⁻¹
MR (Molar Ratio) [4]: 0.9
MR (Molar Ratio) (TtSlyDcas [5]): 0
binding result (TtSlyDcas [5]): no binding (tested: 90 nM)
BL (binding late) [6]: 21 RU
MR (Molar Ratio) [6]: 0.2
SL (stability late) [6]: 17 RU
koff [6]: 0.00041 s⁻¹
t/2 diss [6]: 28 min
BL (binding late) [7]: 80 RU
MR (Molar Ratio) [7]: 1.8
SL (stability late) [7]: 71 RU
koff [7]: 0.00028 s⁻¹
t/2 diss [7]: 41 min
B1: anti-HER3 antibody M-46-01 (antibody, V domains shown)
VH: QIQLQQSGPQLVRPGASVKISCKASGYSFTSYWMHWVKQRPGRGLEWIGMIDPSDGVTRLNQKFKDKATLTVDNSSSTAYMQLSSPTSEDSAVHYCARVDVLYWYFDVWGAGTTVTVSS
VL: DIVLTQSPASLAVSLGQRATISCRASKSISISGYSYMHWYQQKAGQPPKLLIYLTSNLESGVPARFSGSGSGTDFTLNIHPVEEEDAATYYCHHSRELPFTFGSGTKLEIK
notes: mouse hybridoma clone

OD 405 nm [1]: 0.06 OD
binding result [1]: no binding
OD 405 nm (TgSlyDcys-Her3): 3.26 OD
OD 405 nm (TtSlyDcas [2]): 0.038 OD
OD 405 nm (TgSlyDser-Her3): 3.11 OD
Kd [3]: 3.5 nM
MR (Molar Ratio) [3]: 0.1
koff [3]: 0.00037 s⁻¹
kon [3]: 110000 M⁻¹ s⁻¹
MR (Molar Ratio) [4]: 0.7
MR (Molar Ratio) (TtSlyDcas [5]): 0
binding result (TtSlyDcas [5]): no binding (tested: 90 nM)
BL (binding late) [6]: 61 RU
MR (Molar Ratio) [6]: 0.4
SL (stability late) [6]: 62 RU
koff [6]: 4.11e-05 s⁻¹
t/2 diss [6]: 281 min
BL (binding late) [7]: 46 RU
MR (Molar Ratio) [7]: 1.3
SL (stability late) [7]: 45 RU
koff [7]: 0.000102 s⁻¹
t/2 diss [7]: 114 min
B2: anti-HER3 antibody M-08-11 (antibody, V domains shown)
VH: QAYLQQSGAELMRPGASVRMSCQASGYTFTSYTIHWLKQTPRQGLEWIGAIYPRNGDFSYNQKFKDKASLTVDTSSSTAYMHLSSLTSEDSAVYFCARTINYGDWFAYWGQGTLVTVSA
VL: DIQMIQSPASLFVSEGETVIITCRASENIYSNLAWYHQKKGKSPQVLVYAAIKLADGVPLRFSGSGSGTQFSLKINSLQSEDFGSYYCQHFWGPPYTFGSGTNLEIK
notes: mouse monoclonal antibody from hybridoma, tested as hybridoma supernatant or as antibody; also called M-011
